Measurements as given in paper PMC11661440, “TNIK: A redox sensor in endothelial cell permeability” (Science Advances, 2024).

Target: the molecule itself
Experiment: cross-linking; disulfide-linked species of purified GST-TNIK KD; oxidised in vitro with 50 uM H2O2 at 30°C for 15 min or without H2O2 (air oxidation); nonreducing (-DTT) or reducing (+DTT) SDS-PAGE and Western blotting

B1: Recombinant GST-tagged TNIK kinase domain (human amino acids 1 to 367) (domain or fragment, UniProt Q9UKE5 1-367, looked up)
chain: MASDSPARSLDEIDLSALRDPAGIFELVELVGNGTYGQVYKGRHVKTGQLAAIKVMDVTGDEEEEIKQEINMLKKYSHHRNIATYYGAFIKKNPPGMDDQLWLVMEFCGAGSVTDLIKNTKGNTLKEEWIAYICREILRGLSHLHQHKVIHRDIKGQNVLLTENAEVKLVDFGVSAQLDRTVGRRNTFIGTPYWMAPEVIACDENPDATYDFKSDLWSLGITAIEMAEGAPPLCDMHPMRALFLIPRNPAPRLKSKKWSKKFQSFIESCLVKNHSQRPATEQLMKHPFIRDQPNERQVRIQLKDHIDRTKKKRGEKDETEYEYSGSEEEEEENDSGEPSSILNLPGESTLRRDFLRLQLANKERSEA
notes: Oxidised in vitro with 50 uM H2O2 (30°C, 15 min) or left without H2O2; The disulfide-linked species were seen on nonreducing SDS-PAGE; GST is kept on the protein; also called GST-TNIK KD; TNIK KD; source: bought: Thermo Fisher Scientific, recombinant purified
Does B1 bind?
Result: binds
